T1: mouse 5T4 on transfected cells (mouse, UniProt Q9Z0L0 32-426)
T1 construct: whole, on cells; also called murine 5T4
T1 sequence (looked up): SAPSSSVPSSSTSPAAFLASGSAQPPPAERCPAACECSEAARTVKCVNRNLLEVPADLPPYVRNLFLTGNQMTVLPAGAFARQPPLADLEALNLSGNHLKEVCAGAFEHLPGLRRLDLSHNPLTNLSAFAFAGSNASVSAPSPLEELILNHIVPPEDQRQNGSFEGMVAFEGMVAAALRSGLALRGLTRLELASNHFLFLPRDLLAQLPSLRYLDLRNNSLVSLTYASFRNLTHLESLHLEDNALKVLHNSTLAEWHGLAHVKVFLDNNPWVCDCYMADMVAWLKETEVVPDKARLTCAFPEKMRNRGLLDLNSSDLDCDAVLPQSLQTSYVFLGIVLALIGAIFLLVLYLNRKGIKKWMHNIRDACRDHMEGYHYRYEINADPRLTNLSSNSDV

T2: human 5T4 on transfected cells (human, UniProt Q13641 32-420)
T2 construct: whole, on cells; also called B16-5T4; CHOh5T4
T2 sequence (looked up): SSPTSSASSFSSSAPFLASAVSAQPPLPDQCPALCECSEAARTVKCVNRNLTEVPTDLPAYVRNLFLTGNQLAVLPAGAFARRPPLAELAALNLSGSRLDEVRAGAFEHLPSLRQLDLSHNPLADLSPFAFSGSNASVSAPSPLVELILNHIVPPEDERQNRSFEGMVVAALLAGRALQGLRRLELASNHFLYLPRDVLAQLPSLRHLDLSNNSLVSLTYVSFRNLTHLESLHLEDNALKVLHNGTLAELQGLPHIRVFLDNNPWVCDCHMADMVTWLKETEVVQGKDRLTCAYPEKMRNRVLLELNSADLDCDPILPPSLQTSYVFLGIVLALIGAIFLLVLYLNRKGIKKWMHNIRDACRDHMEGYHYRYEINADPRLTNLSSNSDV

T3: cynomolgus 5T4 on transfected CHO cells (Macaca mulatta (cynomolgus), UniProt F7CT46 35-420)
T3 construct: also called cyno5T4; cy5T4
T3 sequence: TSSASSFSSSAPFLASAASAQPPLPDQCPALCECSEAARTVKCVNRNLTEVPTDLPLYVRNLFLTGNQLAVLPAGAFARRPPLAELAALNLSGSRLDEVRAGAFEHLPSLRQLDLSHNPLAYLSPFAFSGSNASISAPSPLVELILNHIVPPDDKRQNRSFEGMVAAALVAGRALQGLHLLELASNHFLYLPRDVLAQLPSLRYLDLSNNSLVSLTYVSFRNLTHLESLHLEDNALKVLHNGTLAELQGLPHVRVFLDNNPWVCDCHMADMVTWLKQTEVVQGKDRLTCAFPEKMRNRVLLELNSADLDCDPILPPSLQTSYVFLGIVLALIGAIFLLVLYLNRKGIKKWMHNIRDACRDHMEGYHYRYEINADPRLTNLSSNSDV

T4: 5T4-Fc (human, UniProt Q13641 32-355, limits assumed)
T4 construct: obtained from Peter L. Stern, University of Manchester; also called h5T4-Fc; recombinant 5T4
T4 sequence (looked up): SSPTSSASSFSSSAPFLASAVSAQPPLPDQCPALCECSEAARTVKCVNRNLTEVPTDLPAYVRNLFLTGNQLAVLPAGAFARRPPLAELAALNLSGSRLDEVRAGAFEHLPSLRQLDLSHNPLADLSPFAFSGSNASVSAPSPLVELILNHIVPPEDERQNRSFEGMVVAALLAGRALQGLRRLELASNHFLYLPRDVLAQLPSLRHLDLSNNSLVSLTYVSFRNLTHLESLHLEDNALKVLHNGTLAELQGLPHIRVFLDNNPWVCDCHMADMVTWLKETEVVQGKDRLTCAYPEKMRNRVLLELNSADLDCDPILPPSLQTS

T5: 5T4 (SPR antigen) (UniProt Q13641 32-355, limits assumed, biotinylated on the MASS-1 platform)
T5 construct: also called biotinylated 5T4
T5 sequence (looked up): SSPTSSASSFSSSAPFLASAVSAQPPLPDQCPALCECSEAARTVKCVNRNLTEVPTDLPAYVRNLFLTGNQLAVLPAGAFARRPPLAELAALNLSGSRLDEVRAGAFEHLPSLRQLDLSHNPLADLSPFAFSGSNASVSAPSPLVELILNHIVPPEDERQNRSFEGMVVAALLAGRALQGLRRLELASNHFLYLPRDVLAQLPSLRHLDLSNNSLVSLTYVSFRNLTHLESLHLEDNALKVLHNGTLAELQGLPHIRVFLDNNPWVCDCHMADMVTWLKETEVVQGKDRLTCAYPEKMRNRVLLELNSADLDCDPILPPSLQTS


Experiments:
[1] = biological target: T1, mouse 5T4 on transfected cells; test: flow cytometry, mouse 5T4-transfected cells
[2] = biological target: T2, human 5T4 on transfected cells; test: flow cytometry, human 5T4-transfected CHO cells
Method: Analysis of 5T4 mAb binding with flow cytometry was performed using 5T4-transfected cell lines and as negative control, mock transfected cells. Three different transfected cell lines used were used for this study; B16, A9 and CHO, transfected either with a 5T4 construct or with an empty vector control construct. Cells were stained with 5T4 antibodies diluted in FACS buffer (PBS, 0.5% BSA and 0.02% NaN₃). […] Samples were analysed either on a FACSCalibur or a FACSverse (BD Biosciences, Heidelberg, Germany) and mean fluorescence intensity (MFI) determined.
In a new attempt to calculate EC50 with flow cytometry a 5T4 mAb dose response experiment was performed using CHO cells stably transfected with human 5T4.

[3] = biological target: T3, cynomolgus 5T4 on transfected CHO cells; test: flow cytometry, cynomolgus 5T4-transfected CHO cells
Method: The potency of 5T4 antibodies in binding to cynomolgus 5T4 was determined by flow cytometry. CHO cells were stably transfected with […] (cynomolgus) 5T4. […] Samples were analysed either on a FACSCalibur or a FACSverse (BD Biosciences, Heidelberg, Germany) and mean fluorescence intensity (MFI) determined. […] To compare the EC50 values between human and cynomolgus 5T4, the cy5T4/hu5T4 ratio was calculated from the experiment with the full dose-response.

[4] = biological target: T4, 5T4-Fc; test: ELISA, coated 5T4-Fc
Method: ELISA was performed using a standard protocol. Plates (#655074, Greiner Bio-One GmbH, Germany) were pre-coated with 0.5 μg/ml 5T4-Fc (obtained from Peter L. Stern, University of Manchester) overnight. 5T4 antibodies were diluted from 6 to 1.5×10⁻³ μg/ml in 1:4 dilutions and added in duplicates of 50 μl to each well. Binding was detected with rabbit anti-h kappa L-chain-HRP (P0129, Dako Denmark) and the ELISA was developed with SuperSignal ELISA PICO Chemiluminescent substrate (Thermo Scientific Pierce, Rockford, Ill. USA) for 2-10 minutes and read in an automated microplate based multi-detection reader (FLUOstar OPTIMA, Netherlands).

[5] = biological target: T5, 5T4 (SPR antigen); test: SPR MASS-1, biotinylated 5T4 on streptavidin chip, mAb injected (bivalent)
Method: Binding kinetics of the 5T4-specific mAbs have been studied using two different SPR-based platforms, the Biacore 3000 (GE Healthcare) and the MASS-1 platform (Sierra Sensors). Briefly, 5T4 was captured at the sensor chip surface either via direct amine coupling (Biacore platform) or using a streptavidin coated chip and biotinylated 5T4 (MASS-1 platform). The different 5T4-specific mAbs were then injected over the chip in increasing concentrations and the association and dissociation rates studied in real time. A 1:1 Langmuir model was used for curve fitting.

[6] = biological target: T2, human 5T4 on transfected cells; test: flow cytometry, 5T4-transfected B16 cells

Row | binding result [1] | EC50 [2] | EC50 [3] | EC50 [4] | koff [5] | kon [5] | EC50 [6] | Binder
1 | no binding | 0.81 nM | 0.7 nM | 0.48 nM | 0.00019 s⁻¹ | 510000 M⁻¹ s⁻¹ | 0.8 nM | 1210/1211 (antibody, V domains shown) VH: not shown VL: DIQMTQSPSSLSASVGDRVTITCRASQSISSYLNWYQQKPGKAPKLLIYAASSLQSGVPSRFSGSGSGTDFTLTISSLQPEDFATYYCQQTYGYLHTFGQGTKLEIK
2 | no binding | 0.51 nM | 1.53 nM | 0.64 nM | 0.00013 s⁻¹ | 1.4e+06 M⁻¹ s⁻¹ | 1.8 nM | 1206/1207 (antibody, V domains shown) VH: EVQLLESGGGLVQPGGSLRLSCAASGFTFSGSSMSWVRQAPGKGLEWVSSIYYSGSGTYYADSVKGRFTISRDNSKNTLYLQMNSLRAEDTAVYYCARYGRNVHPYNLDYWGQGTLVTVSS VL: DIQMTQSPSSLSASVGDRVTITCRASQSISSYLNWYQQKPGKAPKLLIYAASSLQSGVPSRFSGSGSGTDFTLTISSLQPEDFATYYCQQGYYYLPTFGQGTKLEIK
